According to US12564623B2, “Methods and compositions for treating cancer” (The University of Chicago, priority 2017, dated 2026):

Assays:
[1] = test system: E0771 cancer cells; assay: Abscopal effect, bilateral E0771 tumors; assay type: in vivo, C57BL/6 mice
Procedure: (FIG. 19A) E0771 cancer cells were injected into left (0.5 million cells) and right (0.4 million cells) mammary fat pad of C57BL/6 mice. Once tumors on the left side reached ˜100 mm^3, ELANE (11.6 μg) or PMSF-inactivated ELANE (PMSF-ELANE) were injected intra-tumorally into the left tumor once/day for 5 days. n=10 mice/group. No action was performed on the right side of the tumor (abscopal side). Tumor volume on both sides were measured by calipers. (FIG. 19B) To eliminate the possibility that the abscopal effect was due to spillover of ELANE from the left to the right tumor, E0771 cancer cells were injected only into the left mammary fat pad of C57BL/6 mice, and mice were treated daily with ELANE (11.6 μg) or PMSF-ELANE into the right mammary fat pad. Tumor volume was measured by calipers.

[2] = test system: MDA-MB-231 cells; assay: ELANE inactivation by PMSF or A1AT and killing assay; assay type: cell-based, human; conditions: PMSF 100 nM or A1AT 42 nM for 30 mins; 24 hrs
Procedure: (FIG. 5A) Purified native ELANE or PMN media was treated with PMSF (100 nM) or alpha-1-anti-trypsin (A1AT; 42 nM) for 30 mins and loss of ELANE catalytic activity was confirmed by a chromogenic substrate assay. Killing assays were performed by treating MDA-MB-231 cells for 24 hrs treatment and assessed by Calcein AM staining. (FIG. 5B) ELANE activity in PMN media was measured by a chromogenic substrate activity assay, and PMN killing was measured by Calcein AM staining on MDA-MB-231 cells exposed to PMN media for 4h.

[3] = test system: E0771, B16F10, or LLC1 cancer cells; assay: Tumor growth after intratumoral delivery, syngeneic models; assay type: in vivo, C57BL/6 mice; conditions: 11.6 μg intratumorally once/day for 5 days
Procedure: ELANE activity is required for its anti-tumor function in vivo. (FIG. 14A) Catalytic activity of ELANE or ELANE that had been inactivated by treatment with 100 nM PMSF (PMSF-ELANE) was determined by a chromogenic substrate. (FIG. 14B) E0771, B16F10, or LLC1 cancer cells were injected into C57BL/6 mice. Once tumors reached ˜100 mm^3, human serum albumin (HSA, 11.6 μg), ELANE (11.6 μg), or PMSF-ELANE (11.6 μg) were delivered intratumorally once/day for 5 days. Tumor volume was assessed by calipers.

[4] = test system: Cancer cells; assay: ELANE uptake and killing with endocytosis inhibitor Dynasore; assay type: cell-based; conditions: ELANE 30 nM, Dynasore 80 μM, 6 hours
Procedure: (FIG. 9A) Cancer cells were treated with ELANE (100 nM) in the presence or absence of a broad endocytosis inhibitor Dynasore (80 μM) for 30 mins. ELANE catalytic activity in cell lysates was assessed by a chromogenic substrate assay. (FIG. 9B) Cancer cells were treated with ELANE (30 nM) in the presence or absence of Dynasore (80 μM) for 6 hours. Cell viability was examined by Calcein AM staining. *, p<0.05, Student's t-test.

[5] = test system: Healthy non-cancer cells; assay: Killing program signaling in non-cancer cells; assay type: cell-based, Human and mouse; conditions: 50 nM
Procedure: (FIG. 11A) Healthy non-cancer cells were treated with ELANE (50 nM) for 4 hrs, and phosphorylated and total ERK, NFKB, and JNK were quantified by immunoblotting. Immunoblots for BMDMs are shown as an example. (FIG. 11B) Cells were treated with various doses of ELANE for 1 hr and mitochondrial ROS was measured by flow cytometry using CM-H2DCFDA dye. (FIG. 11C) Cells were treated with ELANE (50 nM) for 8 hrs, and full length and cleaved CASP3 (c-CASP3) and cleaved PARP (c-PARP) were quantified by immnoblotting. Immunoblots for BMDMs are shown as an example.
The ELANE-induced killing program is not observed in non-cancer cells. Human and mouse non-cancer cells were treated with ELANE and signaling pathways associated with cancer cell death were assessed. Cells were treated with ELANE (50 nM) for 4 hrs, and phosphorylated and total ERK, NFKB, and JNK were quantified by western blotting. Cells were treated with various doses of ELANE for 1 hr and mitochondrial ROS was measured by flow cytometry using CM-H2DCFDA dye. Cells were treated with ELANE (50 nM) for 8 hrs, and full length and cleaved CASP3 and PARP were quantified by western blotting.

B1: neutrophil elastase (protein, listed as Homo sapiens)
chain: MTLGRRLACLFLACVLPALLLGGTALASEIVGGRRARPHAWPFMVSLQLRGGHFCGATLIAPNFVMSAAHCVANVNVRAVRVVLGAHNLSRREPTRQVFAVQRIFENGYDPVNLLNDIVILQLNGSATINANVQVAQLPAQGRRLGNGVQCLAMGWGLLGRNRGIASVLQELNVTVVTSLCRRSNVCTLVRGRQAGVCFGDSGSPLVCNGLIHGIASFVRGGCASGLYPDAFAPVAQFVNWIDSIIQRSEDNPCPHPRDPDPASRTH
notes: purified native ELANE
- tumor growth after injection into contralateral non-tumor bearing mammary fat pad ([1]; 11.6 μg daily): does not lower tumor growth
- abscopal effect ([1]; 11.6 μg into left tumor once/day for 5 days): induces an abscopal effect
- dependence of cancer cell killing on catalytic activity [2]: catalytic activity is required for its selective cancer cell killing
- tumor growth [3]: slows tumor growth
- dependence of killing on uptake [4]: internalization is required to kill cancer cells
- killing program in healthy non-cancer cells [5]: does not induce a robust killing program in healthy non-cancer cells
